Reference: the supplement of paper PMC9170038

System: MS2 coat protein
Assay: apparent KD of MS2 coat protein; designed switch direction (-1 OFF switch, 1 ON switch): 1; higher = weaker reporter binding
In short: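 Apparent KD, taken as the median over clusters for each design, was obtained by curve-fitting normalised cluster fluorescence. Designed RNA switches had been transcribed on Illumina chips by stalled E. coli RNA polymerase and titrated with SNAP-549-labelled MS2 coat protein, doubling from 0.7 or 1.5 nM to 3 µM.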

[1] = input ligand: microRNA oligo, concentration not stated
[2] = Eterna round: R95, input ligand: FMN 200 uM
[3] = Eterna round: R95, input ligand: microRNA oligo, concentration not stated
[4] = Eterna round: R95, input ligand: none

Sequence: GGAGCCGGCCUAGGAUAUUUCAUUAUUAAACAUGAGGAUCACCCAUGUAGGCCAGAAGGCCUUGGGAAGAAGGAGGUCGGCUCC [Loop Effect - U24,U26,U28] (Eterna round: R96, puzzle: Same State NG 2)
- apparent KD of MS2 coat protein (input ligand: FMN 200 uM): 0.0171 µM
- apparent KD of MS2 coat protein [1]: 0.0496 µM
- apparent KD of MS2 coat protein (input ligand: none): 0.0685 µM

Sequence: GUAGCAUACCGAGGAUAUUCAUAUUAAAUACAUGAGGAUCACCCAUGUUAGGCCAAAAGGCCUUGGGAGAAGGCGGAAUGCUAC [Xeonanis - 20 Mod2] (Eterna round: R96, puzzle: Same State NG 2)
- apparent KD of MS2 coat protein (input ligand: FMN 200 uM): 0.0209 µM
- apparent KD of MS2 coat protein [1]: 0.0336 µM
- apparent KD of MS2 coat protein (input ligand: none): 0.0635 µM

Sequence: ACAUGAGACAUAGGAUAUGUUGUACCUACAUGUGACAUGAGGAUCACCCAUGUGGUAAGUAUGAGACAGAAGGAUGAGAUAUGU [Equivalence 30 - Jieux - Same State NG 2] (Eterna round: R96, puzzle: Same State NG 2)
- apparent KD of MS2 coat protein (input ligand: FMN 200 uM): 0.0275 µM
- apparent KD of MS2 coat protein [1]: 0.0434 µM
- apparent KD of MS2 coat protein (input ligand: none): 0.073 µM

Sequence: UUGAAGAAUUAAGGAUAUCGAGUCGUCAGAUUUUACAUGAGGAUCACCCAUGUGGGUUGCGGUAUCGAGAAGGUAAAUUACAAG [JL JR Sub099 mod 6] (Eterna round: R96, puzzle: Same State NG 2)
- apparent KD of MS2 coat protein (input ligand: FMN 200 uM): 0.0244 µM
- apparent KD of MS2 coat protein [1]: 0.0341 µM
- apparent KD of MS2 coat protein (input ligand: none): 0.0433 µM

Sequence: GCCAUCGCAUGAGGAUAUGGCACCGUUUCGGUGCCAGAAGGCAUGUCAAAUGACAUGAGGAUCACCCAUGUAGUUAAGAUGGCA [JL Fiskers NG1ss - 33 mod 9] (Eterna round: R96, puzzle: Same State NG 1)
- apparent KD of MS2 coat protein (input ligand: FMN 200 uM): 0.0292 µM
- apparent KD of MS2 coat protein [1]: 0.417 µM
- apparent KD of MS2 coat protein (input ligand: none): 0.542 µM

Sequence: GUUACAUGAGGAUCACCCAUGUGUGUGUGGGAGUGAGUGGCUUAGGAUAUCUAUGAUUUUAGUUGAGAGAAGGAGGAUUGCUGU [SS-NG3-LRO08] (Eterna round: R96, puzzle: Same State NG 3)
- apparent KD of MS2 coat protein (input ligand: FMN 200 uM): 0.439 µM
- apparent KD of MS2 coat protein [1]: 0.158 µM
- apparent KD of MS2 coat protein (input ligand: none): 0.347 µM

Sequence: GUAGAACAUGAGGAUCACCCAUGUGAAGACGCAUGAGGAUAUAUACGUAAAUAGCAUACGAUAGAAGGCAUGAUAA [JR_SS001_Sub1703] (Eterna round: R96, puzzle: Same State 1)
- apparent KD of MS2 coat protein [1]: 0.0406 µM

Sequence: GUAGCAUACCGAGGAUAUUCAUUACAUGAGGAUCACCCAUGUUUUAUAGGUCGAUUACGACCUUGGGAGAAGGCGGAAUGCUAC [Xeonanis - 20 Mod30] (Eterna round: R96, puzzle: Same State NG 2)
- apparent KD of MS2 coat protein (input ligand: FMN 200 uM): 0.0105 µM
- apparent KD of MS2 coat protein [1]: 0.00936 µM
- apparent KD of MS2 coat protein (input ligand: none): 0.0156 µM

Sequence: UUAUUAUUUACAUGAGGAUCACCCAUGUUUUUAUGUCAGAGACAGGAUAUAGAAGUCUCGUUUUACUAGAAGGGUCUUUUUAUU [JR_SSNG3_Sub016] (Eterna round: R96, puzzle: Same State NG 3)
- apparent KD of MS2 coat protein (input ligand: FMN 200 uM): 0.022 µM
- apparent KD of MS2 coat protein [1]: 0.0171 µM
- apparent KD of MS2 coat protein (input ligand: none): 0.022 µM

Sequence: UUCUGAUAGCGAGGAUAUCGCGAGGAUCACCCGUGAGAAGGCGCAGAGCCGAGGAUCACCCGGCUGAUCCUGAGAAGGAGGUCA (Eterna round: R96, puzzle: Same State NG 1)
- apparent KD of MS2 coat protein (input ligand: FMN 200 uM): 0.136 µM
- apparent KD of MS2 coat protein [1]: 0.333 µM
- apparent KD of MS2 coat protein (input ligand: none): 0.53 µM

Sequence: GCUCGAUGAUAGGCCUACAUGAGGAUCACCCAUGUAAGUGGGCAGGAUAUCUAAAUGCAGAAUGUAGAGAAGGGCCCGUCGAGC [SameState NG3 #54] (Eterna round: R96, puzzle: Same State NG 3)
- apparent KD of MS2 coat protein (input ligand: FMN 200 uM): 0.612 µM
- apparent KD of MS2 coat protein [1]: 0.239 µM
- apparent KD of MS2 coat protein (input ligand: none): 1.46 µM

Sequence: AUAAUUAAUGCAGGAUAUGAUUAACAUGAGGAUCACCCAUGUGGUGUUGUGAGUAAGGAGAGUGAUCAGAAGGGCAUUUUUUUU [JMF's solution 33] (Eterna round: R96, puzzle: Same State NG 2)
- apparent KD of MS2 coat protein (input ligand: FMN 200 uM): 0.666 µM
- apparent KD of MS2 coat protein [1]: 0.298 µM
- apparent KD of MS2 coat protein (input ligand: none): 0.343 µM

Sequence: AUAAGGCAAGCUUUUUUCUCGUAGUAUAAACAUGAGGAUCACCCAUGUGCCUACCCUGGAUCUUUGGAUCGCAGAAA [Ravebiat] (puzzle: Sensor for hsa-mir-208a)
- apparent KD of MS2 coat protein [2]: 0.0221 µM
- apparent KD of MS2 coat protein [3]: 0.0157 µM
- apparent KD of MS2 coat protein [4]: 0.0283 µM

Sequence: UGCCUGAGUCGAGGAUAUUAUGGAUCAAUUAAUACAUGAGGAUCACCCAUGUAAUUAAUUUAACAUGAGAAGGUGACUCAGGCA [SSNG2/10-B2] (Eterna round: R96, puzzle: Same State NG 2)
- apparent KD of MS2 coat protein (input ligand: FMN 200 uM): 0.0149 µM
- apparent KD of MS2 coat protein [1]: 0.0122 µM
- apparent KD of MS2 coat protein (input ligand: none): 0.00999 µM

Sequence: GAGUGACGAUUAGGAUAUACAGUGAUAAUGAUAGUAGAAGGAAUUGACAUGAGGAUCACCCAUGUAGGACUAAUCCAGAGAGAG [Parity 29 - Jieux - Same State NG 1] (Eterna round: R96, puzzle: Same State NG 1)
- apparent KD of MS2 coat protein (input ligand: FMN 200 uM): 0.0865 µM
- apparent KD of MS2 coat protein [1]: 0.0399 µM
- apparent KD of MS2 coat protein (input ligand: none): 0.0578 µM

Sequence: AGUCCAGCCUGAGCUGGACAAAAGCAUGUACAUGAGGAUCACCCAUGUCAUGUACAAGCUUUUUGCUAGUCUUAAAA [Mat - hsa-mir-208a - Mod of JL - D12] (puzzle: Sensor for hsa-mir-208a)
- apparent KD of MS2 coat protein [2]: 0.413 µM
- apparent KD of MS2 coat protein [3]: 0.0137 µM
- apparent KD of MS2 coat protein [4]: 0.551 µM

Sequence: UGAAUAGUGAUAGGAUAUACAUGAGGAAUCCUCGUAGAAGGAUCACGACAUGAGGAUCACCCAUGUAGCCGUCCGUAGACGGCA [Mat - Same State NG 1 - JL mod - D59] (Eterna round: R96, puzzle: Same State NG 1)
- apparent KD of MS2 coat protein (input ligand: FMN 200 uM): 0.353 µM
- apparent KD of MS2 coat protein [1]: 0.0664 µM
- apparent KD of MS2 coat protein (input ligand: none): 0.231 µM

Sequence: UGUUGUAUUACAGGAUAUCUAUUGAUUUUAUUUAGAGAAGGGUAUUCACAUGAGGAUCACCCAUGUAUAUACGAGGAAGUUGUG [JMF's solution 71] (Eterna round: R96, puzzle: Same State NG 1)
- apparent KD of MS2 coat protein [1]: 0.0415 µM

Sequence: ACAUGAGGAUCACCCAUGUAACACCUGAAAAUAAAACGAACACAGGAUAUCCCGACAUGACGUUGGGAGAAGGGUGAUCGAAGA [Leenrien] (Eterna round: R96, puzzle: Same State NG 3)
- apparent KD of MS2 coat protein (input ligand: FMN 200 uM): 0.269 µM
- apparent KD of MS2 coat protein [1]: 0.202 µM
- apparent KD of MS2 coat protein (input ligand: none): 0.0296 µM

Sequence: AUUGCUAGCACAGGAUAUCAUGCGAAAAUUGCGUGAGAAGGGUGGACGCUGUCAUUCACGGAGGACAUGAGGAUCACCCAUGUC [SameState NG1 #78] (Eterna round: R96, puzzle: Same State NG 1)
- apparent KD of MS2 coat protein (input ligand: FMN 200 uM): 0.0544 µM
- apparent KD of MS2 coat protein [1]: 0.0534 µM
- apparent KD of MS2 coat protein (input ligand: none): 0.0626 µM

Sequence: AUCAAAGCGUGAGGAUAUAUGGGAACACGAGUCGUAGAAGGUACGUCAAUACAUGAGGAUCACCCAUGUAAAGAGGAGAACCUC [Eternabot solution 33] (Eterna round: R96, puzzle: Same State NG 1)
- apparent KD of MS2 coat protein (input ligand: FMN 200 uM): 0.0601 µM
- apparent KD of MS2 coat protein [1]: 0.0329 µM
- apparent KD of MS2 coat protein (input ligand: none): 0.0452 µM

Sequence: AAAAUGCGGGAAGGAUAUGGGAAAGGAAGUGUACCAGAAGGUCUCGCGGCCAAGGACAUGAGGAUCACCCAUGUUAACGCCCGA [PowerStrip SSNG 1.8] (Eterna round: R96, puzzle: Same State NG 1)
- apparent KD of MS2 coat protein (input ligand: FMN 200 uM): 0.204 µM
- apparent KD of MS2 coat protein [1]: 0.0434 µM
- apparent KD of MS2 coat protein (input ligand: none): 0.0408 µM

Sequence: AGCGAGAUAGGCAAGGAUAUGCUGGGUUGCACAUGAGGAUCACCCAUGUCAUUGGUUAUGGCCGAGCAGAAGGUGCAUUCUCUUU [ak bound state near shape] (puzzle: Same State 2)
- apparent KD of MS2 coat protein [2]: 0.0195 µM
- apparent KD of MS2 coat protein [3]: 0.0756 µM
- apparent KD of MS2 coat protein [4]: 0.0665 µM

Sequence: GAGGGACAGACCAACAUGAGGAUCACCCAUGUCCUCGCAGGUCAGGAUAUUAUUAGGAUCACCAGUGAGAAGGGACGGUGAAGG (Eterna round: R96, puzzle: Same State NG 3)
- apparent KD of MS2 coat protein (input ligand: FMN 200 uM): 0.366 µM
- apparent KD of MS2 coat protein [1]: 0.227 µM
- apparent KD of MS2 coat protein (input ligand: none): 0.521 µM

Sequence: GACAAUCUAUCUGAGGAUAUCAUGAAGAAAACAUGAGGAUCACCCAUGUGCAGGAUAACUGCAAAUGAGAAGGCAGAUAGAUUGU [Mat - Same State 2 - Mod - D6] (puzzle: Same State 2)
- apparent KD of MS2 coat protein [2]: 0.0171 µM
- apparent KD of MS2 coat protein [3]: 0.0178 µM
- apparent KD of MS2 coat protein [4]: 0.0224 µM

Sequence: UUUUCGAACCGAGGAUAUCCUUAUAAGAAACAUGAGGAUCACCCAUGUAAAGGGAAUUAUUUGAAGGAGAAGGCGGAUUUUGUU [JR_SSNG2_Sub053] (Eterna round: R96, puzzle: Same State NG 2)
- apparent KD of MS2 coat protein [1]: 0.0335 µM

Sequence: GCUCGAUGAAAGUCCUACAUGAGGAUCACCCAUGUACGUGGGCAGGAUAUCUACAUGCAGAGUGUAGAGAAGGGCCCAUCGAGC [SameState NG3 #60] (Eterna round: R96, puzzle: Same State NG 3)
- apparent KD of MS2 coat protein (input ligand: FMN 200 uM): 0.0186 µM
- apparent KD of MS2 coat protein [1]: 0.0226 µM
- apparent KD of MS2 coat protein (input ligand: none): 0.0349 µM

Sequence: UGUUUGUUGUGAGGAUAUACGUACACCUUACAUGAGGAUCACCCAUGUUGUUUCUUUGAUUGUUGGUAGAAGGCACUUGGUUAU [JR_SSNG2_Sub048] (Eterna round: R96, puzzle: Same State NG 2)
- apparent KD of MS2 coat protein (input ligand: FMN 200 uM): 0.324 µM
- apparent KD of MS2 coat protein [1]: 0.123 µM
- apparent KD of MS2 coat protein (input ligand: none): 0.208 µM

Sequence: ACGCAGCUGGGUGAGGAUAUCGGUGGUAAAACAUGAGGAUCACCCAUGUCCGAAGCUCGGACUUCCGAGAAGGCGCCCGGCUGCG [Soinraesar] (puzzle: Same State 2)
- apparent KD of MS2 coat protein [2]: 0.0114 µM
- apparent KD of MS2 coat protein [3]: 0.104 µM
- apparent KD of MS2 coat protein [4]: 0.103 µM

Sequence: UAAAUACAUGAGGAUCACCCAUGUCAAAAGACAUGAGGAUAUGUACAGACUUCGGUCUGUACAGAAGGCAUGAAUA [salish99_ss1_r3_096] (puzzle: Same State 1)
- apparent KD of MS2 coat protein [2]: 0.0344 µM
- apparent KD of MS2 coat protein [3]: 0.294 µM
- apparent KD of MS2 coat protein [4]: 0.566 µM
